The nanobody polyreactivity screen of Harvey et al. (2022)

Experiment: yeast display, Sf9 membrane polyspecificity reagent, FACS + sequencing; frameworks hold sequencing errors
In short: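 A nanobody's polyreactivity label depends on the gate it was sorted from. Yeast display cells were stained with 10% biotinylated, detergent-solubilized Sf9 membrane reagent for 1 hour at 4 °C, enriched on streptavidin microbeads and sorted by FACS. The low and high (top ~1%) gates were set on anti-HA fluorescence for expression and streptavidin fluorescence for reagent binding.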

Which “polyreactivity (PSR sort gate)” value does the source give for “QVQLVESGGGLVQAGGSLRLSCAASGRTFFYNGMVWYIQAPGKQRELVAAISGSGSRTYYADSVKGRFTISRDNAKNTVYLQMNSLKPEDTAVYYCAATRVISHYRFDYWGQGTEVTVSS” here?
The value was “high polyreactivity”.

Which “polyreactivity (PSR sort gate)” value does the source give for “QVQLVESGGGLVQAGGSLRLSCAASGRTFFYYAMGSYRQAPGKERELVATITKRGGSTYYADSVKGRFTISRDNAKNTVYLQMNSLKPEDTAVYYCNAAGNPVSRYHYDYWGQGTQVTVSS” here?
The value was “high polyreactivity”.

For “QVQLVESGGGLVQAGGSLRLSCAASGRTFGANDMGWYRQAPGKDSELVAAITYSGGRTNYADSVKGRFTISRDNAKNSVYLQMNSLKPEDTAVYYCAAGGWRDRSRYNYWGQGTQVTVSS”, which “polyreactivity (PSR sort gate)” value is on record?
The value was “high polyreactivity”.

Which “polyreactivity (PSR sort gate)” value does the source give for “QVQLVESGGGLVQAGGSLRLSCAASGRTFGAYAMGLYRQEPGKETELVAAISKSGGRTYYADSVKGRFTISRDYAKNTVYLLMNSLKPEDTAVYYCNARGFRGEYDYWGEGTQVTVSS” here?
Its value is “high polyreactivity”.

With “QVQLVESGGGLVQAGGSLRLSCAASGRTFGAYAMGWYRQAPGKERELVAAISNGGRTYYADSVKGRFTISRDNAKNTVYLQMNSLKPEDTAVYYCNKVRSPWYDSWGQGTQVTVSS” as the sequence, how does the “polyreactivity (PSR sort gate)” value read?
Its value is “high polyreactivity”.

With “QVQLVESGGGLVQAGGSLRLSCAASGRTFGAYAMGWYRQAPGKERELVATITVSGGSTYYADSVKGRFTISRDNAMNTVSLQLNSLKPEDTAVYYCATEFYEEYWGQGTQVTVSS” as the sequence, how does the “polyreactivity (PSR sort gate)” value read?
Its value is “low polyreactivity”.

With “QVQLVESGGGLVQAGGSLRLSCAASGRTFGDYAMGWYRQAPGKERELVAAISSSGGRTYYADSVKGRFTISRDNAKNTVYLQMNSLKPEDTAVYYCAAQSKYYQYYSWGQGTQVTVSS” as the sequence, how does the “polyreactivity (PSR sort gate)” value read?
Its value is “high polyreactivity”.

For “QVQLVESGGGLVQAGGSLRLSCAASGRTFGEYAMGWYRQAPGKERELVADITNGSRTYYADSVKGRFTISRDNAKNTVYLQMNSLKPEDTAVYYCAADWWKEVDYWGQGTQVTVSS”, which “polyreactivity (PSR sort gate)” value is on record?
The value was “low polyreactivity”.

For “QVQLVESGGGLVQAGGSLRLSCAASGRTFGEYTMGWYRQAPGKERELVAAISSAGRTNYADSVKGRFTISRDNAKNTVYLQMNSLKPEDTAVYYCAADWTDDVPGYDYWGQGTQVTVSS”, which “polyreactivity (PSR sort gate)” value is on record?
The value was “low polyreactivity”.

For “QVQLVESGGGLVQAGGSLRLSCAASGRTFGFNAMGWYRQAPGKDRELVASITRGGRTDYADSVKGRFTISRDNAKNTVYLQMNSLKPEDTAVYYCAAQSGWHHTGGMYYWGQGTQVTVSS”, which “polyreactivity (PSR sort gate)” value is on record?
The value was “high polyreactivity”.

For “QVQLVESGGGLVQAGGSLRLSCAASGRTFGFYGMGWYRQAPGKEREFVAAITRRGGSTYYADSVKGRFTISRDNAKNTVYLQMNRLKPEDTAVYYCAAGYSSRYRGGLDYWGQGTQVTVSS”, which “polyreactivity (PSR sort gate)” value is on record?
The value was “high polyreactivity”.

With “QVQLVESGGGLVQAGGSLRLSCAASGRTFGFYTMGCYRQAPGKERELVAAISWRGGSTYYADSVKGRFTISRDNAKNTVYLQMYSLKPEDTAVYYCAVRTNFGKMYYWGQGTQVTVSS” as the sequence, how does the “polyreactivity (PSR sort gate)” value read?
The value was “high polyreactivity”.

Which “polyreactivity (PSR sort gate)” value does the source give for “QVQLVESGGGLVQAGGSLRLSCAASGRTFGFYTMGWYRQAPGKERELVAGISRGGSTTYADSVKGRFTISRDNAKNTVYLQMNSLKPEDTAVYYCNADRSHYWLPYGVRFDYWGQGTQVTVSS” here?
Its value is “low polyreactivity”.

For “QVQLVESGGGLVQAGGSLRLSCAASGRTFGGNAMGWYRQAPGKERELVAAINSDGGRTYYADSVKARFTISRDNAKNTVYLQMNSLKPEDTAVYYCNRAYRKSYTGYGYDYWGQGTQVTVSS”, which “polyreactivity (PSR sort gate)” value is on record?
Its value is “high polyreactivity”.

With “QVQLVESGGGLVQAGGSLRLSCAASGRTFGGNAMGWYRQAPGKERQLVASISSSGGRTYYAVSVKGRFTISRDNAKNTVYLQMNSLKPEDTAVYYCAVAWNVRGVGARQRYIYGYWGQGTQVTVSS” as the sequence, how does the “polyreactivity (PSR sort gate)” value read?
The value was “high polyreactivity”.

Which “polyreactivity (PSR sort gate)” value does the source give for “QVQLVESGGGLVQAGGSLRLSCAASGRTFGGNVMGWYRQAPGKERELVAAITWSGGRTYYADSVKGRFTISRDNAKNTVYLQMNSLKPEDTAVYYCNARNGFTVKKFYYWGQGTQVTVSS” here?
The value was “high polyreactivity”.

For “QVQLVESGGGLVQAGGSLRLSCAASGRTFGGYAMGWYRQAPGKERELVADITSSGSTTYYADSVKGRFTISRDNSKNNVYLERYSLKPEDTAVYYCNAEGYSPVLYDYWGQGTQVTVSS”, which “polyreactivity (PSR sort gate)” value is on record?
The value was “low polyreactivity”.

For “QVQLVESGGGLVQAGGSLRLSCAASGRTFGGYAMVWYRQAPGKERELVATITKNGGSTYYADSVKGRFTISRDNAKNTVYVQMNSLKPEVTAVYYCATGSRGYKASPQWRDYWGQGTQVTVSS”, which “polyreactivity (PSR sort gate)” value is on record?
The value was “high polyreactivity”.

Which “polyreactivity (PSR sort gate)” value does the source give for “QVQLVESGGGLVQAGGSLRLSCAASGRTFGHNAMGRYRQAPGKEREFVAAITRRGGSTYYADSVKGRFTISRDNAKNTVYLQMNSLKPEDTAVYYCATRDYVNGPGIFNYWGQGTQVTVSS” here?
Its value is “low polyreactivity”.

For “QVQLVESGGGLVQAGGSLRLSCAASGRTFGINAMGWYRQAHGKERELVAVISFGDGGTYYADSVKGRFTISRDNAKNTVYLQMNSLKPEDTAVYYCATDYQSTSVWGGHFVINPYDYWGQGTQVTVSS”, which “polyreactivity (PSR sort gate)” value is on record?
The value was “low polyreactivity”.

Which “polyreactivity (PSR sort gate)” value does the source give for “QVQLVESGGGLVQAGGSLRLSCAASGRTFGIYAMGWYRQAPGKERELVAAITGRGGSTHYADSVKGRFSISRDNAKNTVYLQMNSLKPEDTAVYYCAADYRYNRGITSNKDYDYWGQGTQVTVSS” here?
The value was “low polyreactivity”.

For “QVQLVESGGGLVQAGGSLRLSCAASGRTFGKNAMGWYRQAPGKEMEFVAAITSRGGSTYYADSVKGRFTISRDNAKNTVYLQLNSLIPVDTAVYYCYGEYKRPSQRTEHYYWGQGSQVTVSS”, which “polyreactivity (PSR sort gate)” value is on record?
The value was “low polyreactivity”.

With “QVQLVESGGGLVQAGGSLRLSCAASGRTFGKNAMGWYRQAPGKERELVAAISFSGGRTYYADSVKGRFTISRDNANNTVYLQMNSLKPEDTAVYYCAARGSRRGTWYDYWGQGTQVTVSS” as the sequence, how does the “polyreactivity (PSR sort gate)” value read?
The value was “high polyreactivity”.

With “QVQLVESGGGLVQAGGSLRLSCAASGRTFGKNAMGWYRQAPGKERELVAAISWSGGRTYYADSVKGRFTISRDNAKNTVYLQMNSVKPVDTAVYYCATASYRNPSDYWGQGTQVTVSS” as the sequence, how does the “polyreactivity (PSR sort gate)” value read?
Its value is “high polyreactivity”.

For “QVQLVESGGGLVQAGGSLRLSCAASGRTFGKYAMGWYRQAPGKERELVATISRSGGSTYYADSVKGRFTISRDNAKNTVYLQMNSLKPEDTAVYYCNAVTSRYIWPPVLDRYHYWGQGTQVTVSS”, which “polyreactivity (PSR sort gate)” value is on record?
Its value is “high polyreactivity”.

For “QVQLVESGGGLVQAGGSLRLSCAASGRTFGLNVMGWYRPAPGKDRELVATISGVGSTNYADSVKGRFTISRDNAKNTVYLQMNSLKPEDTAVYYCAAGGTSGQEFGYWGQGTQVTVSS”, which “polyreactivity (PSR sort gate)” value is on record?
The value was “low polyreactivity”.

For “QVQLVESGGGLVQAGGSLRLSCAASGRTFGLYSMGWYRQAPGKVRELVASIDWSDDN”, which “polyreactivity (PSR sort gate)” value is on record?
Its value is “low polyreactivity”.

With “QVQLVESGGGLVQAGGSLRLSCAASGRTFGNYAMGWYRQAPGKDRELVAALSTTGGRTSYADSVKGRFTISRDNAKNTVYLQMNSLKPEDTAVYYCNVYTTSQARRKRIDYDFWGQGTQVTVSS” as the sequence, how does the “polyreactivity (PSR sort gate)” value read?
Its value is “high polyreactivity”.

With “QVQLVESGGGLVQAGGSLRLSCAASGRTFGNYVMGWYRQAPGKERELVAAIRSGTNTYYADSVKGRFTISRDNAKNTVYLQMNSLKPEDTAVYYCAAARYTKFDYWGQGTQVTVSS” as the sequence, how does the “polyreactivity (PSR sort gate)” value read?
The value was “high polyreactivity”.

With “QVQLVESGGGLVQAGGSLRLSCAASGRTFGPNAMGWYRQAPGKERELVAAIRYSGGSTYYADSVKGRFTISRDNAKNTVYLQMNSLKPEDTAVYYCAADYVSYVGERGTLYVRYDYWGQGTQVTVSS” as the sequence, how does the “polyreactivity (PSR sort gate)” value read?
The value was “high polyreactivity”.

Which “polyreactivity (PSR sort gate)” value does the source give for “QVQLVESGGGLVQAGGSLRLSCAASGRTFGPNAMGWYRQAPGKERELVAAISGSGGSTYYADSVKGRFTISRDNAKNTVYLQMYSLKPEDTAVYYCAARHRQQKLDYWGQGTQVTVSS” here?
Its value is “high polyreactivity”.

For “QVQLVESGGGLVQAGGSLRLSCAASGRTFGPYAMGWYIQAPGKERELVAAITWSSGRTYYADSVKGRFTISRDNAKNTVYLQMNSLKPEDTAVYYCNKDRFYRNNYGYGYWGQGTQVTVSS”, which “polyreactivity (PSR sort gate)” value is on record?
The value was “high polyreactivity”.

With “QVQLVESGGGLVQAGGSLRLSCAASGRTFGPYAMGWYRQAPGKEREFVAAISYSGGSTYYADSVKGRFTISRDNAKNTVFLQMNSLKPEDTAVYYCAVDIDSNSGTRDYWGQGTQVTVSS” as the sequence, how does the “polyreactivity (PSR sort gate)” value read?
The value was “low polyreactivity”.

Which “polyreactivity (PSR sort gate)” value does the source give for “QVQLVESGGGLVQAGGSLRLSCAASGRTFGPYAMGWYRQAPGKERELVAAISRSGSSTYYADSVKGRFTISRDTGKNNVYLQMNSLKPEDTAVYDCAVARSSPEYYYWGQGTQVTVSS” here?
The value was “high polyreactivity”.

With “QVQLVESGGGLVQAGGSLRLSCAASGRTFGPYVMGWYRQAPGKERELVAAISFSGGSTYYADSVKGRFTISRDNAKNTVYLQMNSLKPEDTAVYYCAARAVGGVRGYRYDYWGQGTQVTVSS” as the sequence, how does the “polyreactivity (PSR sort gate)” value read?
The value was “high polyreactivity”.

For “QVQLVESGGGLVQAGGSLRLSCAASGRTFGQNAMGWYRQAPGKERELVAAISWRGARTFYADSVKGRFTISRDNAKNTVYLQMNSLKPEDTAVYYCAARYSAYRRNVAYDYWGQGTQVTVSS”, which “polyreactivity (PSR sort gate)” value is on record?
Its value is “high polyreactivity”.

With “QVQLVESGGGLVQAGGSLRLSCAASGRTFGQNTMGWYRQAPGIERELVAAINWSGGSTYYADSVKGRFTISRDNAKNTVYLQMNSLKPEDTAVYYCAVRGYWGQGTQVTVSS” as the sequence, how does the “polyreactivity (PSR sort gate)” value read?
The value was “low polyreactivity”.

For “QVQLVESGGGLVQAGGSLRLSCAASGRTFGRNAMGWYRQAPGKEREFVAAISRRGDTTYYADSVKGRFTISRDNAKNSVYLQMNSLKPEDTAVYYCNAAVIKDRFSWYYYWGQGTQVTVSS”, which “polyreactivity (PSR sort gate)” value is on record?
The value was “low polyreactivity”.

With “QVQLVESGGGLVQAGGSLRLSCAASGRTFGRNAMGWYRQAPGKERELVAAISSDGGRTYYADSVKGRFTISRDNAKNTVYLQMNSLKPEDTAVYYCAKQRSYSDGGYWGQGTQVTVSS” as the sequence, how does the “polyreactivity (PSR sort gate)” value read?
Its value is “low polyreactivity”.

For “QVQLVESGGGLVQAGGSLRLSCAASGRTFGRNAMGWYRQAPGKERELVAAISTSGSRTYYADSVKGRFTISRDNAKNTVYLQMNSLKPEDTAVYYCNAYGVSRGSYGTRGYWGQGTQVTVSS”, which “polyreactivity (PSR sort gate)” value is on record?
Its value is “high polyreactivity”.

For “QVQLVESGGGLVQAGGSLRLSCAASGRTFGRNAMGWYRQAPGKVRELVAAINSDGSTYYADSVKGRFTISRDNAKNTVYLQMNSLKPEDTAVYYCAADTWVWTDYFRRFEYWGQGTQVTVSS”, which “polyreactivity (PSR sort gate)” value is on record?
The value was “high polyreactivity”.

With “QVQLVESGGGLVQAGGSLRLSCAASGRTFGRYAMGWYRQAPGKERELVARISFSGGSTHYADSVKGRFTISRDNAKNTVYLQMNSLKPEDTAVYYCNTDWYRNWGKPYYYWGQGTQVTVSS” as the sequence, how does the “polyreactivity (PSR sort gate)” value read?
The value was “high polyreactivity”.

For “QVQLVESGGGLVQAGGSLRLSCAASGRTFGRYTMGWYRQAPGKERELVAAITGRGGSTFYADSVKGRFTISRDNAKNTVYLQMNSLKPEDTAVYYCAARRTSIKDQFYYWGQGTQVTVSS”, which “polyreactivity (PSR sort gate)” value is on record?
The value was “high polyreactivity”.
